Experimental findings from US20100081620A1 are described below.

Like-named read-outs stand apart in the source and are kept apart here.

One assay has as its target ADAM 10 on IMPE cells. In words: cell-based or functional assay.
In assay [1] the target is mouse ADAM 10 catalytic domain (mouse) (UniProt O35598). In words: enzyme inhibition ('unpublished observation').
Assay [2] deals with human ADAM 9 catalytic/disintegrin domains (human) (UniProt Q13443). Kind of assay: enzyme inhibition, fluorescent peptide substrate.
Sequence of human ADAM 9 catalytic/disintegrin domains (human) (Q13443 206-697 limits assumed): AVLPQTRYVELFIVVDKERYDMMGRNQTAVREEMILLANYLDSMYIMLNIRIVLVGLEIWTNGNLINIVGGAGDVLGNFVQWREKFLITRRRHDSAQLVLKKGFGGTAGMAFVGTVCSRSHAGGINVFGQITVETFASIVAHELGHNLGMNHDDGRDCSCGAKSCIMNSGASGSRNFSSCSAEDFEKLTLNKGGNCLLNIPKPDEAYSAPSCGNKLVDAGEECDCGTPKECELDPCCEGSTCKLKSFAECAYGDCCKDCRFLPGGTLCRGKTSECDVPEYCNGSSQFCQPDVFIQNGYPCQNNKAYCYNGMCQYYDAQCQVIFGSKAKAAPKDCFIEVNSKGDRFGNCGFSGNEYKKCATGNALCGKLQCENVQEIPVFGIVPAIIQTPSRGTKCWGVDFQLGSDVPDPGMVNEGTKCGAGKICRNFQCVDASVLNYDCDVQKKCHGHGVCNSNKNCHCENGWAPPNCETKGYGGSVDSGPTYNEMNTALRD
For assay [3], the target named is Human ADAM10 protease containing the catalytic/disintegrin domains (human) (UniProt O14672). In words: enzyme inhibition, fluorescent peptide substrate.
Sequence of Human ADAM10 protease containing the catalytic/disintegrin domains (human) (O14672 214-672 limits assumed): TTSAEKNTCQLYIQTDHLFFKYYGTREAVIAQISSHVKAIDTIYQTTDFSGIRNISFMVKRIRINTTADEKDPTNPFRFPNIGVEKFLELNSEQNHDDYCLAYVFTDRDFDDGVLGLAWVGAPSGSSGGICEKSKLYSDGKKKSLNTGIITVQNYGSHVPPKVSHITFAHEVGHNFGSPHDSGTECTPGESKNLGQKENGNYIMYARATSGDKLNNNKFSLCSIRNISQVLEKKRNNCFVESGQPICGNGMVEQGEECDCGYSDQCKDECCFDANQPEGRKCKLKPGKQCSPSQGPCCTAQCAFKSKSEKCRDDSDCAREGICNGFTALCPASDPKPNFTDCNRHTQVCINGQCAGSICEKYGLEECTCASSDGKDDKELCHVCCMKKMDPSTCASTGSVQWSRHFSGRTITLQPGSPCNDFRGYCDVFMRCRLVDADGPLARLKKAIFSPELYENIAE
For the next assay, the target named is MMP 14. Kind of assay: enzyme inhibition, fluorescent peptide substrate.
The target of another assay is MMP 13. Kind of assay: enzyme inhibition, fluorescent peptide substrate.
The target of assay [4] is Human TACE protease containing the catalytic/disintegrin domains (human) (UniProt P78536). Kind of assay: enzyme inhibition, fluorescent peptide substrate.
Sequence of Human TACE protease containing the catalytic/disintegrin domains (human) (P78536 215-671 limits assumed): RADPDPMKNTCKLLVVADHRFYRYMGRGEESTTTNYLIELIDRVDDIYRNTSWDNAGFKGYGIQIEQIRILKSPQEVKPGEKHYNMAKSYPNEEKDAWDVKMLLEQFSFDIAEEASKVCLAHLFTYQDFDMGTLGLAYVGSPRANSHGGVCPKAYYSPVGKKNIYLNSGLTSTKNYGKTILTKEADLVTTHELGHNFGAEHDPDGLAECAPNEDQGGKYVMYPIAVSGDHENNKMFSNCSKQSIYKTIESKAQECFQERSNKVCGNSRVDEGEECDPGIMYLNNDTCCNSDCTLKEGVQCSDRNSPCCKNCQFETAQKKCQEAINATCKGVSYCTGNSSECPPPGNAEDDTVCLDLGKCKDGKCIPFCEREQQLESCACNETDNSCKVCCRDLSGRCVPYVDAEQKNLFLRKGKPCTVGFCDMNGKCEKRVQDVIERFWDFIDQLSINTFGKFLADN
In another assay the target is MMP 3. In words: enzyme inhibition, fluorescent peptide substrate.
Sequence of MMP 3 (P08254 100-477): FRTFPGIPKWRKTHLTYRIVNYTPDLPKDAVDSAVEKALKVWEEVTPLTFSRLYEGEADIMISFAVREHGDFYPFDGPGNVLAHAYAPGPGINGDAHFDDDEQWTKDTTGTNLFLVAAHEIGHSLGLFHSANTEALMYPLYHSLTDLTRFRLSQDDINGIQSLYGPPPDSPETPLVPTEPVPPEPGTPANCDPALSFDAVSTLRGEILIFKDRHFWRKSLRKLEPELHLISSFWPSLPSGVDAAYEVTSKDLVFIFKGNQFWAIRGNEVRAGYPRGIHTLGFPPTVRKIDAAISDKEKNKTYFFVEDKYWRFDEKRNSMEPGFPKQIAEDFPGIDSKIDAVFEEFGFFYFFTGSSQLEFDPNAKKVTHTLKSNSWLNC
For assay [5], the target named is TACE catalytic domain (human) (human) (UniProt P78536). Kind of assay: enzyme inhibition, fluorescent peptide substrate.
Sequence of TACE catalytic domain (human) (human) (P78536 215-477 limits assumed): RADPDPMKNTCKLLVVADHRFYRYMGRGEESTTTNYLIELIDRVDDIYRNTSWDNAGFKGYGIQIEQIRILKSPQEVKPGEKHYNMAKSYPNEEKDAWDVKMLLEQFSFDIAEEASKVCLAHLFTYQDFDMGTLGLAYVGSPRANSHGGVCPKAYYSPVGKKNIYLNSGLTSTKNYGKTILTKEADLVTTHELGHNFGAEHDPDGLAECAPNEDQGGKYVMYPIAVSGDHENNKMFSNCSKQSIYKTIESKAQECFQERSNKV
The target of a further assay is MMP 1. Kind of assay: enzyme inhibition, fluorescent peptide substrate.
Sequence of MMP 1 (P03956 100-469): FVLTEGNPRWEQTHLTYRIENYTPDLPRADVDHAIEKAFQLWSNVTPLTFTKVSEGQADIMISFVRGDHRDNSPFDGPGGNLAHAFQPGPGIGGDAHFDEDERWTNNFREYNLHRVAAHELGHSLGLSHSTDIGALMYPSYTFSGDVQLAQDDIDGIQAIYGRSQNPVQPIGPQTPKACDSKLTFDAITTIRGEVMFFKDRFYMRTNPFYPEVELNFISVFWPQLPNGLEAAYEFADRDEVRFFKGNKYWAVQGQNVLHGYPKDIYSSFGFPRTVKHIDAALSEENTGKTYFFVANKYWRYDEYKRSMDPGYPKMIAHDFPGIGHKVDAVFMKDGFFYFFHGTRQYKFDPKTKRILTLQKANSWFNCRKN
The target of assay [6] is human ADAM 9 catalytic/disintegrin domains (human) (UniProt Q13443). In words: enzyme inhibition, fluorescent peptide substrate. This is another data set of the same source.
The target of another assay is MMP 9. In words: enzyme inhibition, fluorescent peptide substrate.
Sequence of MMP 9 (P14780 107-707): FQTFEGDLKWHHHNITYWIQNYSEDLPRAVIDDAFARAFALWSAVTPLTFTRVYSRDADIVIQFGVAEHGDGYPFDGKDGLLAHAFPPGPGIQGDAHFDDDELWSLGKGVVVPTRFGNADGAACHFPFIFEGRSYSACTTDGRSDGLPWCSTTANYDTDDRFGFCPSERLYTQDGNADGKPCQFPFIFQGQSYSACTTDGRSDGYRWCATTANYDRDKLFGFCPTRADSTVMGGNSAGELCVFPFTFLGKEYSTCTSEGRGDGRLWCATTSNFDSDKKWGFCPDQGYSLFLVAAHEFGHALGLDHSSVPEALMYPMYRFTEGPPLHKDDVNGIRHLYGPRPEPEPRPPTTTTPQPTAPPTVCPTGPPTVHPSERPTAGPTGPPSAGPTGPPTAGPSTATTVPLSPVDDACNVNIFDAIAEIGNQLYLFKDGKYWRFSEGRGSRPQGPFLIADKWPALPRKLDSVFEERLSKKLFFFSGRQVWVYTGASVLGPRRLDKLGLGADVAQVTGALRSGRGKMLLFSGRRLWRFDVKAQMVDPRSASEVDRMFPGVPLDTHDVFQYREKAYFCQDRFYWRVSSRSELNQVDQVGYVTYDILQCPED
The next assay has as its target MMP 2. Kind of assay: enzyme inhibition, fluorescent peptide substrate.
Assay [7] deals with ADAM 10 protein on Ramos cells, U937 cells and B cells. Kind of assay: cell-based or functional assay.
Assay [8] deals with T1, ADAM 8 catalytic domain (mouse) (mouse) (UniProt Q05910).
T1 sequence (looked up): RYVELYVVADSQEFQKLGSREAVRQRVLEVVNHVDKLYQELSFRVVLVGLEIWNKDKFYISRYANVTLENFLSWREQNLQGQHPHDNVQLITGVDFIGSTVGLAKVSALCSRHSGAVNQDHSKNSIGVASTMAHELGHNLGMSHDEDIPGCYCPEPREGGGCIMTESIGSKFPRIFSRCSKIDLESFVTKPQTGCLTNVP
Kind of assay: enzyme inhibition, fluorescamine assay with Dnp peptide substrate.

Assay [9] addresses Human TACE protease containing the catalytic/disintegrin domains (human) (UniProt P78536). Kind of assay: cell-based or functional assay.

Sequence of MMP 2 (P08253 110-660): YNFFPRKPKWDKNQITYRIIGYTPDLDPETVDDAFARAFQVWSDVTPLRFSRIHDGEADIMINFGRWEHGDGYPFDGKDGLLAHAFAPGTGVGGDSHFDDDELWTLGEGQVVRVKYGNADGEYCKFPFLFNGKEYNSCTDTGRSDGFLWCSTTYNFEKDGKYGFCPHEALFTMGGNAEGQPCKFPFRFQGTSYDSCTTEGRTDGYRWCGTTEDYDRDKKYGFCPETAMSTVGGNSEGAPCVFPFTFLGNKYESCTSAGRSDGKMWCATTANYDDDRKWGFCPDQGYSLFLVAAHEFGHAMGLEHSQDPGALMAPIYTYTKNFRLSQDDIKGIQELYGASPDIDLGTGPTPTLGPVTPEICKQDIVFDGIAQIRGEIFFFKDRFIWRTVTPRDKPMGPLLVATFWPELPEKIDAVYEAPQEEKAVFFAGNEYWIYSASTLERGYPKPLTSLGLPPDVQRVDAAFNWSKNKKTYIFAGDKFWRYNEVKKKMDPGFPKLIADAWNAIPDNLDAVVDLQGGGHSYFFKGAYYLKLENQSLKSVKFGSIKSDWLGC
Sequence of mouse ADAM 10 catalytic domain (mouse) (O35598 215-457 limits assumed): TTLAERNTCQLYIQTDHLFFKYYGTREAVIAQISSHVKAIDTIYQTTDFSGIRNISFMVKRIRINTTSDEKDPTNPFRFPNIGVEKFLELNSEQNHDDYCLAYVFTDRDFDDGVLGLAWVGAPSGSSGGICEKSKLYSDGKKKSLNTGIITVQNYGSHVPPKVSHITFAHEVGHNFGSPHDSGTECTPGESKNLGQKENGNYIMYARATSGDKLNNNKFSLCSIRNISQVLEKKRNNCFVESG

On to “ADAM10 prodomain (betacellulin shedding assay, construct not specified)”, for which, in the assay with ADAM 10 on IMPE cells, the inhibition of calcium ionophore induced betacellulin shedding (BTC ELISA) was 67 % (at 15 µM), the inhibition of calcium ionophore induced betacellulin shedding (BTC ELISA) (% (at 1.5 µM)) came to 25, the inhibition of constitutive betacellulin shedding (BTC ELISA) was 90 % (at 15 µM) and the inhibition of constitutive betacellulin shedding (BTC ELISA) (% (at 1.5 µM)) stood at 75.
“C173S ProADAM 10 23-213 (C-terminal His tag) (from UniProt O35598 23-213)”: the Ki (commonly the equilibrium dissociation constant of an inhibitor or competing ligand from its target) in [1] is 17 nM; in assay [2], 1000 nM; in assay [3] it was 36 nM; in the assay with MMP 14, over 2000 nM; with MMP 13 it was over 2000 nM; in [4] it was over 3000 nM. The Ki with MMP 3 was over 2000 nM; in assay [5], over 3000 nM; in the assay with MMP 1, over 2000 nM; in [6], over 1000 nM; with MMP 9 it was over 2000 nM; in the assay with MMP 2, over 2000 nM. The Ki in assay [8] is over 10 µM. The same substance came in with an inhibition of CD23 shedding in Ramos cells (soluble CD23 ELISA) in assay [7] of 30%. In assay [7], this substance came in with an inhibition of CD23 shedding in U937 cells (soluble CD23 ELISA) of 30%.
As to “Pro ADAM 17 (mouse) (from UniProt Q9Z0F8 18-214)”, the prodomain inhibition of enzyme activity (percent) in [9] was found to be 0%.
